In publication PMC4164519 one finds stoichiometry N data, which are given here for one substance.

The experiment has as its target Neu4 with a C-terminal TAP (SBP/CBP) tag expressed in COS 7 cells (human) (UniProt Q8WWR8). The experiment can be described thus: SEC; FPLC size exclusion chromatography of the purified enzyme; apparent mass.

On to “Neu4 with a C-terminal TAP (SBP/CBP) tag expressed in COS 7 cells (from UniProt Q8WWR8 1-484) (enzyme)”, for which the stoichiometry N was found to be 2.
